{"source": "paper PMC11154711", "about": "(2024)", "binders": {"B1": {"name": "Ubc13 (E2 ubiquitin-conjugating enzyme) (enzyme)", "chain": "MAGLPRRIIKETQRLLAEPVPGIKAEPDESNARYFHVVIAGPQDSPFEGGTFKLELFLPEEYPMAAPKVRFMTKIYHPNVDKLGRICLDILKDKWSPALQIRTVLLSIQALLSAPNPDDPLANDVAEQWKTNEAQAIETARAWTRLYAMNNI"}}, "test_in_all_cases": "BLI", "key": {"[1]": {"target": "T1, OTUB1 V173D (human, UniProt Q96FW1 1-271, V173D)"}, "[2]": {"target": "T2, OTUB1 V173K (human, UniProt Q96FW1 1-271, V173K)"}, "[3]": {"target": "T3, OTUB1 F133A (human, UniProt Q96FW1 1-271, F133A)"}, "[4]": {"target": "T1, OTUB1 V173D", "remark": "listed apart in the source"}, "[5]": {"target": "T2, OTUB1 V173K", "remark": "listed apart in the source"}, "[6]": {"target": "T3, OTUB1 F133A", "remark": "listed apart in the source"}}, "data": [{"binder": "B1", "values": [{"measurement": "koff", "setting": "[1]", "result": 0.004, "unit": "s⁻¹"}, {"measurement": "koff", "setting": "[2]", "result": 0.006, "unit": "s⁻¹"}, {"measurement": "koff", "setting": "[3]", "result": 0.005, "unit": "s⁻¹"}, {"measurement": "Kd", "setting": "[4]", "result": 3.02, "unit": "µM"}, {"measurement": "Kd", "setting": "[5]", "result": 1760, "unit": "nM"}, {"measurement": "Kd", "setting": "[6]", "result": 46.7, "unit": "µM"}]}]}
